Laboratory results from the supplement of paper PMC10126150.
± gives the standard deviation of the averaged measurements.

System: ATP
Assay: switch fluorescence ratio, 500 uM ATP over buffer (Cy3 cluster intensity, sum of 5 cycles each) (fold (ratio)); higher = stronger signal-on switching upon ATP binding; sequences stand for … in TCGTCGGCAGCGTCAGATGTGTATAAGAGACAGTTTTTTTTTTTTTTTTTTTTTTTTT…TC
Conditions: aptamer strand: ATP DNA aptamer (quencher-CACCTGGGGGAGTATTGCGGAGGAAGG + anchor), 100 nM annealed; ATP concentration: 500 uM
Procedure, shortened: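 Values give the fluorescence ratio for each switch-domain sequence, averaged from per-cluster ratios of summed target-cycle to summed buffer-cycle Cy3 intensity. The Cy3-labelled switching-strand clusters sat on a modified Illumina MiSeq flow-cell, were annealed to 100 nM quencher-labelled ATP aptamer, and were imaged in selection buffer, then after 15 min with 500 uM ATP at 22 °C. Five cycles ran with NaOH stripping and re-annealing between them, and clusters outside 100-1000 RFU were excluded.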
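Also: ATP exposure 15 min at 22 °C before imaging.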

Sequence	switch fluorescence ratio
GTTGGAGTGT	0.9511 ± 0.0068
GTTGGATAGG	1.01 ± 0.016
GTTGGATGGA	0.9966 ± 0.0062
GTTGGCAGGC	1.03 ± 0.028
GTTGGCATTT	1.05 ± 0.092
GTTGGCGGGA	1.02 ± 0.042
GTTGGGACTG	1 ± 0.055
GTTGGGAGCC	0.99 ± 0.01
GTTGGGATAA	1 ± 0.038
GTTGGGCCCA	1 ± 0.016
GTTGGGCCGT	0.987 ± 0.038
GTTGGGCTAT	0.9916 ± 0.0024
GTTGGGGGAC	1.09 ± 0.086
GTTGGGGGCA	0.968 ± 0.049
GTTGGGGTAT	1.06 ± 0.11
GTTGGGGTCA	0.988 ± 0.011
GTTGGGGTCG	0.998 ± 0.037
GTTGGGGTGA	1.05 ± 0.02
GTTGGGTATC	0.998 ± 0.023
GTTGGTCTAC	1.04 ± 0.018
GTTGGTGCGG	0.999 ± 0.034
GTTGGTGGCT	0.9581 ± 0.0026
GTTGGTGGGG	0.957 ± 0.035
GTTGTAATAG	1.09 ± 0.031
GTTGTACTGG	0.944 ± 0.03

Sequence	switch fluorescence ratio
GTTGTACTTG	0.988 ± 0.005
GTTGTAGGTG	1.057 ± 0.0014
GTTGTAGTCT	1.02 ± 0.023
GTTGTAGTTG	0.98387 ± 0.00037
GTTGTATCGG	0.991 ± 0.021
GTTGTCAGTA	0.9836 ± 0.005
GTTGTCATGC	1.02 ± 0.033
GTTGTCGCTT	0.9811 ± 0.0057
GTTGTCGTAT	0.974 ± 0.051
GTTGTCTCCA	0.985 ± 0.015
GTTGTGCGTA	0.994 ± 0.031
GTTGTGGCGG	0.97 ± 0.021
GTTGTGGGCG	0.977 ± 0.12
GTTGTGGTTC	0.96755 ± 0.00092
GTTGTGTATT	0.998 ± 0.022
GTTGTTAGGA	0.961 ± 0.02
GTTGTTATGT	1.01 ± 0.015
GTTGTTATTG	1.01 ± 0.021
GTTGTTGAAG	1.009 ± 0.0011
GTTGTTGCTA	0.99 ± 0.034
GTTGTTTGAT	0.997 ± 0.052
GTTGTTTGTA	0.971 ± 0.021
GTTGTTTGTT	0.978 ± 0.015
GTTGTTTTGA	0.994 ± 0.022
GTTTAAAACG	0.9961 ± 0.0073

Sequence	switch fluorescence ratio
GTTTAAAATG	1 ± 0.024
GTTTAAACGT	1.02 ± 0.021
GTTTAATATT	0.99 ± 0.026
GTTTAATGGG	0.999 ± 0.037
GTTTAATTTG	1 ± 0.025
GTTTACGTGG	1.01 ± 0.015
GTTTACTCTT	0.996 ± 0.025
GTTTAGAGCG	1.026 ± 0.01
GTTTAGGGTA	1.01 ± 0.051
GTTTATAGGT	0.9815 ± 0.0077
GTTTATATAT	1.03 ± 0.035
GTTTATCATT	0.982 ± 0.011
GTTTATCCGT	0.996 ± 0.055
GTTTATGTTA	1.017 ± 0.0018
GTTTCAAACG	0.971 ± 0.025
GTTTCAATGC	1.31 ± 0.1
GTTTCCAGGT	1.16 ± 0.017
GTTTCCATGG	0.973 ± 0.033
GTTTCGCCGT	1.046 ± 0.0054
GTTTCGGTTG	0.972 ± 0.05
GTTTCTGGTG	1.13 ± 0.064
GTTTCTTGGG	0.995 ± 0.056
GTTTCTTTAC	0.988 ± 0.058
GTTTCTTTGT	0.986 ± 0.049
GTTTGCAAGT	1.011 ± 0.0072

Sequence	switch fluorescence ratio
GTTTGCCCAA	0.987 ± 0.037
GTTTGCCCTT	1.06 ± 0.1
GTTTGCCTCT	0.995 ± 0.012
GTTTGCGCTT	1.01 ± 0.021
GTTTGCGGCA	1.01 ± 0.027
GTTTGGGAAA	0.988 ± 0.036
GTTTGGGCCG	1.07 ± 0.028
GTTTGGGTTG	0.989 ± 0.019
GTTTGGTAGT	0.979 ± 0.038
GTTTGTTAAT	1.007 ± 0.0044
GTTTGTTTAA	0.981 ± 0.017
GTTTTAAACA	1 ± 0.034
GTTTTAAAGG	0.984 ± 0.031
GTTTTAACAT	0.9895 ± 0.0073
GTTTTAAGGG	0.99 ± 0.016
GTTTTACGCG	1 ± 0.007
GTTTTAGAGG	1.01 ± 0.015
GTTTTAGCCA	0.97 ± 0.013
GTTTTAGGCT	0.973 ± 0.061
GTTTTAGTGT	0.98716 ± 0.00058
GTTTTAGTTT	0.987 ± 0.037
GTTTTATAGG	0.965 ± 0.021
GTTTTATGAG	0.959 ± 0.014
GTTTTATGGA	0.983 ± 0.034
GTTTTATTTT	1 ± 0.047

Sequence	switch fluorescence ratio
GTTTTCAAAG	0.973 ± 0.037
GTTTTCCCGT	1.03 ± 0.027
GTTTTCGCGA	1.06 ± 0.04
GTTTTCGGGA	1.03 ± 0.013
GTTTTCGGGT	1.01 ± 0.052
GTTTTCTCAT	0.989 ± 0.029
GTTTTCTGAG	0.9658 ± 0.0089
GTTTTGACAT	0.993 ± 0.0013
GTTTTGATGG	1 ± 0.019
GTTTTGATTG	1 ± 0.04
GTTTTGGAGT	1.05 ± 0.047
GTTTTGGGCT	1.01 ± 0.032
GTTTTGGTAC	1.01 ± 0.038
GTTTTGTCAA	1.02 ± 0.0038
GTTTTGTCAT	1.01 ± 0.035
GTTTTGTGTA	1.01 ± 0.074
GTTTTGTTAT	1.01 ± 0.018
GTTTTTAGAA	0.994 ± 0.031
GTTTTTATAT	1.03 ± 0.015
GTTTTTATTT	0.976 ± 0.031
GTTTTTCGAT	1.02 ± 0.001
GTTTTTCTTA	0.978 ± 0.037
GTTTTTCTTT	0.988 ± 0.024
GTTTTTGCTA	1.01 ± 0.028
GTTTTTGGTA	0.986 ± 0.021

Sequence	switch fluorescence ratio
GTTTTTGTAA	1.02 ± 0.052
GTTTTTGTCA	1.021 ± 0.008
GTTTTTGTCG	1.07 ± 0.056
GTTTTTTAGG	0.978 ± 0.0056
GTTTTTTATT	0.996 ± 0.033
GTTTTTTCAT	1.02 ± 0.023
GTTTTTTGTG	0.986 ± 0.013
TAAAAAAGG	0.997 ± 0.042
TAAAAAAGTT	1.12 ± 0.26
TAAAAAATAG	1.043 ± 0.0086
TAAAAACCTT	1.43 ± 0.35
TAAAAAGA	0.9496 ± 0.005
TAAAAAGATG	1.02 ± 0.044
TAAAAAGGGA	1.02 ± 0.02
TAAAAAGGGG	0.998 ± 0.012
TAAAAAGTAT	1 ± 0.015
TAAAAATATT	0.961 ± 0.03
TAAAAATCGT	0.997 ± 0.021
TAAAAATTAT	1 ± 0.028
TAAAAGATTT	1.01 ± 0.037
TAAAAGCTGA	0.989 ± 0.042
TAAAAGGACT	1.03 ± 0.034
TAAAAGGGGT	1.01 ± 0.05
TAAAATACA	0.983 ± 0.019
TAAAATAGTC	1.02 ± 0.034

Sequence	switch fluorescence ratio
TAAAATATGG	1.06 ± 0.11
TAAAATGGGG	1 ± 0.022
TAAAATTTAA	1.01 ± 0.05
TAAAATTTTT	1.002 ± 0.01
TAAACACGTG	0.987 ± 0.053
TAAACAGTGA	1.01 ± 0.038
TAAACCGTGG	1.02 ± 0.024
TAAACCTAGC	1.46 ± 0.062
TAAACGCGGG	1.04 ± 0.093
TAAACGCGTA	0.998 ± 0.029
TAAACGTATT	1.14 ± 0.13
TAAACTAAAA	0.97499 ± 3.2e-05
TAAACTCCA	1.05 ± 0.042
TAAAGAGGGT	1 ± 0.033
TAAAGATTTC	1.01 ± 0.069
TAAAGATTTT	1.01 ± 0.041
TAAAGCAGGA	0.993 ± 0.03
TAAAGCATGG	0.98 ± 0.019
TAAAGCTAGG	0.995 ± 0.065
TAAAGGATAT	1.01 ± 0.014
TAAAGGCTAC	1.17 ± 0.2
TAAAGGGAGC	1.12 ± 0.19
TAAAGGGATC	0.978 ± 0.017
TAAAGGGGCG	1.01 ± 0.031
TAAAGGGGGC	1.05 ± 0.017

Sequence	switch fluorescence ratio
TAAAGGGGTG	1.01 ± 0.038
TAAAGGGTTA	0.985 ± 0.014
TAAAGGGTTT	0.982 ± 0.021
TAAAGGTCAT	0.9959 ± 0.0018
TAAAGGTTTT	0.974 ± 0.04
TAAAGTGATT	0.988 ± 0.025
TAAAGTGGCG	1.05 ± 0.039
TAAAGTTAGG	1 ± 0.011
TAAATAATAT	1.01 ± 0.019
TAAATACTCT	1.16 ± 0.032
TAAATCAGTA	0.9888 ± 0.0048
TAAATCCGGG	1 ± 0.022
TAAATCGTGC	1.022 ± 0.0064
TAAATGAATT	1.05 ± 0.096
TAAATGCCGG	1.14 ± 0.26
TAAATGCGGG	0.975 ± 0.039
TAAATGGAAA	0.999 ± 0.051
TAAATGGAGG	0.9891 ± 0.0061
TAAATGGGGG	0.979 ± 0.034
TAAATGGTGG	0.977 ± 0.015
TAAATGGTTT	1.02 ± 0.023
TAAATGTGCG	0.996 ± 0.031
TAAATGTTAC	1.0644 ± 0.0005
TAAATTCAGA	0.994 ± 0.031
TAAATTGCGG	0.966 ± 0.013
